Stoichiometry N data for 2 substances are collected here from article PMC4931470.

For one assay, the target named is E22P-Aβ42. Nature of the assay: SEC; Superdex75 10/300GL, PBS pH 7.4, 0.6 mL/min; Aβ solution 25 μM incubated at 37 °C for the indicated duration, supernatant after centrifugation (17,860 x g, 4 °C, 10 min) analysed; dextran standards. (In general: In gel filtration, larger molecules generally elute earlier.)
Another assay deals with E22P-Aβ42 dimer. The description is as above.

For the substance E22P-Aβ42 (peptide), in the assay with E22P-Aβ42, the stoichiometry N (usually the number of molecules, sites or subunits per partner or assembly) lay in the range of 6 to 8.
Take E22P-Aβ42 dimer (peptide): the stoichiometry N with E22P-Aβ42 dimer lay within 6 to 8.
